Our source for the EC50 values is PMC5761895.

The target of the assay is Fluorescently labelled replication protein A (Flu-RPA) (human) (UniProt P27694).
Chain of Fluorescently labelled replication protein A (Flu-RPA) (human) (P27694 whole entry, chain 1 of 3): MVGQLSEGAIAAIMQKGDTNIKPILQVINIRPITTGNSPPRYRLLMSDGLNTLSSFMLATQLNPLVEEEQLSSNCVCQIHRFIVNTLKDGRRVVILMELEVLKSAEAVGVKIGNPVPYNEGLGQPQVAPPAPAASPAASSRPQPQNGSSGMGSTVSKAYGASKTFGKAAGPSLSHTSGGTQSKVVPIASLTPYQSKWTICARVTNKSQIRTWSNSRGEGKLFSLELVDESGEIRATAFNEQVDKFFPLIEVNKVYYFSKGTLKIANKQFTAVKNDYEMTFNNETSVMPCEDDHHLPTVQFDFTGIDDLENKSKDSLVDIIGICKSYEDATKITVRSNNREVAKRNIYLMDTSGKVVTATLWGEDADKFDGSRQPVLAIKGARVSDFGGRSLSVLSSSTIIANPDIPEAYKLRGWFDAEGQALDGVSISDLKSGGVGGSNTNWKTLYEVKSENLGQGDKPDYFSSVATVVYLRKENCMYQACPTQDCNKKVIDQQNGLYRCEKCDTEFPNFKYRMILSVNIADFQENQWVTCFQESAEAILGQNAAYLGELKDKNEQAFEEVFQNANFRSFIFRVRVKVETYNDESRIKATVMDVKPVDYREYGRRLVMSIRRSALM
Chain of Fluorescently labelled replication protein A (Flu-RPA) (human) (P15927 whole entry, chain 2 of 3, further chain): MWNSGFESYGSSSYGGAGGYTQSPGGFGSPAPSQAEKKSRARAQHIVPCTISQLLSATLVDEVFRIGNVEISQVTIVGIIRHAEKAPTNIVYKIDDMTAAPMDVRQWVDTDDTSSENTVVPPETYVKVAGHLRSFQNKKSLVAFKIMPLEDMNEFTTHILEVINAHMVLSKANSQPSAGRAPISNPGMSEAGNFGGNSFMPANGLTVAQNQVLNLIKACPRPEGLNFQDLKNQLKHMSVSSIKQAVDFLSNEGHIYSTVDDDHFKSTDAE
Chain of Fluorescently labelled replication protein A (Flu-RPA) (human) (P35244 whole entry, chain 3 of 3, further chain): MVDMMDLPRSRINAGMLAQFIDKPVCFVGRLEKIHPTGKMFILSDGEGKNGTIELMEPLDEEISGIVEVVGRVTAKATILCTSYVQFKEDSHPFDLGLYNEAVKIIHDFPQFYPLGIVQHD

Chain of Recombinant human xeroderma pigmentosum group A protein (hXPA) bearing the N-terminal polyhistidine fragment (P23025 whole entry, the tested form may be a part): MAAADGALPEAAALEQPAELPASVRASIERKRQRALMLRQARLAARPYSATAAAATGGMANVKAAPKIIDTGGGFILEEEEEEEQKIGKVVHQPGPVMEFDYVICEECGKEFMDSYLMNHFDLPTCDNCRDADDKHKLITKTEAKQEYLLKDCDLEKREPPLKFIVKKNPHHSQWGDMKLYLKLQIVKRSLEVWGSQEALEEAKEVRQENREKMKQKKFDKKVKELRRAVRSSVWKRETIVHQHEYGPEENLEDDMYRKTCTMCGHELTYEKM

The substance “Recombinant human xeroderma pigmentosum group A protein (hXPA) bearing the N-terminal polyhistidine fragment (from UniProt P23025 1-273) (natural protein)” had a half-maximal effective concentration (EC50) of 18 nM.

By EC50 is commonly meant the concentration that produces a half-maximal response.
